Data taken from publication PMC2815668, “Pseudo-merohedral twinning and noncrystallographic symmetry in orthorhombic crystals of SIVmac239 Nef core domain bound to different-length TCRζ fragments” (Acta Crystallographica Section D: Biological Crystallography, 2010).

Target: T1, SIVmac239 Nef core domain, GS-Nef (Asp95–Ser235) (simian immunodeficiency virus, isolate …, UniProt P31818 95-235)
T1 construct: source: E. coli BL21 (DE3), purified (Ni-NTA under 8 M urea, dialysis, thrombin cleavage, anion exchange, SEC)
T1 sequence: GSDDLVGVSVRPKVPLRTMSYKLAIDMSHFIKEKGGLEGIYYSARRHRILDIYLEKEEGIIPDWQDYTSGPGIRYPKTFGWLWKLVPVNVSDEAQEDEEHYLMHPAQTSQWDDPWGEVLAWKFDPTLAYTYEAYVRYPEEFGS
Experiment: not stated; unpublished results; stoichiometry of the complex
Conditions: both partners purified

B1: TCRζDP1 (Leu51–Asp93), N-terminal acid-cleavage fragment of the TCRζ cytoplasmic domain (domain or fragment)
chain: LRVKFSRSADAPAYQQGQNQLYNELNLGRREEYDVLDKRRGRD
notes: also called longer TCRζ polypeptide; source: acid cleavage of purified TCRζcyt (30% acetonitrile, 0.5% TFA, 48 h, 323 K), isolated by reverse-phase chromatography
- stoichiometry N: 1
